Experimental data: article PMC6083498, “F-CphI represents a new homing endonuclease family using the Endo VII catalytic motif”

Molecular target: T1, F-CphI (cyanophage S-PM2, UniProt Q7Y4H4 1-142)
T1 sequence: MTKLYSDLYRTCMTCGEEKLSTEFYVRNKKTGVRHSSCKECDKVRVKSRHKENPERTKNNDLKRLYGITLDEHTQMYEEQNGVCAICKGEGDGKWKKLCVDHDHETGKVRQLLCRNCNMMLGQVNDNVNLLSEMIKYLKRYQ
Experiment: EMSA; no Mg2+ added; Kd value only in figure; EMSA: 10 mM Tris-HCl pH 8.0, 2% glycerol, 2 ug/ml poly-dIdC, 2 ug/ml BSA, 0.2 mM DTT, on ice 15 min, 2 nM labeled DNA; 8% native PAGE in 1X TBE
Conditions: protein: recombinant; tags: C-terminal Myc-His (pBAD/Myc-HisB; in frame with downstream His-tag); label: 5'-32P on top strand; blunt

B1: SBM4-60Top duplex (dsDNA)
DNA 1: TGGTCTGGGTATGGAAGTGATGCACGAGCGCAACGCTCACAACTTCCCTCTCGACCTTGC
DNA 2: GCAAGGTCGAGAGGGAAGTTGTGAGCGTTGCGCTCGTGCATCACTTCCATACCCAGACCA
  binding result: binds
